B1: 46D3 (VHH)
VHH: KVQLVESGGGLVQAGGSLRLSCAASGRTFTEYSMGWFRQAPGKEREFVATISWNYGYTYYSDSVKGRFTVSRDIAENTVYLQMNTLKSEDTAVYYCAAKIGWLSIRGDEYEYWGQGTQVTVSS
notes: C-term myc-His6 tag
B2: 17C2 (VHH)
VHH: EVQLVESGGGLVQPGGSLRLSCAASGFAFSSYAMSWVRQAPGKGLEWVSAVDSGGGRTDYAHSVKGRFTISRDNAKNTLYLQMSSLKPEDTALYYCTKHVSDSDYTEYDYWGQGTQVTVSS
notes: C-term myc-His6 tag
B3: 15D12 (VHH)
VHH: EVQLVESGGGLVQAGESLRLSCATSGITFKRYVMGWYRQGPGKQRELVATVNDGGTTSYADSVKGRFAISRDNAKNTAYLQMNSLKAEDTAVYYCNAVWKLPRFVDNDYWGQGTQVTVSS
notes: C-term myc-His6 tag
B4: 17C3 (VHH)
VHH: EVQLVESGGGLVQAGGSLRLSCAANGLTFRRYDMGWYRQAPGQQREWVAAISGAGDINYADSVKGRFTMARDNANHTVHLQMNSLKPEDTAVYYCNANWKMLLGVENDYWGQGTQVTVSS
notes: C-term myc-His6 tag
B5: 13D7 (VHH)
VHH: EVQLVESGGGLVQAGGSLRLSCAANGLTFRRYDMGWYRQAPGQQREWVAAISGAGDINYADSVKGRFTMARDNANHTVHLQMNSLKPEDTAVYYCNANWKMLLGVENDYWGQGTQVTVSS
notes: C-term myc-His6 tag
B6: 27G5 (VHH)
VHH: EVQLVESGGGLVQPGGSLRLSCVASRIPASIRTMAWYRQTPGNQRDWLATIGSSGTPAYADSVKGRFTVSRDNAKNTVYLQMNSLKPEDTAVYYCRDVNGDYWGQGTQVTVSS
notes: C-term myc-His6 tag
B7: 29E9 (VHH)
VHH: EVQLVESGGGLVQPGGSLRLSCVASRIPASIRTMAWYRQTPGNQRDWLATIGSSGTPAYADSVKGRFTVSRDNAKNTVYLQMNSLKPEDTAVYYCRDVNGDYWGQGTQVTVSS
notes: C-term myc-His6 tag
B8: 15D8 (VHH)
VHH: EVQLVESGGGLVQPGGSLKLSCVASTIPASIRTMAWYRQTPGNQRDWLATIGSSGTPAYADSVKGRFTVSRDNAKNTVYLQMNSLKPEDTAVYYCRDVNGDYWGQGTQVTVSS
notes: C-term myc-His6 tag
B9: 13A9 (VHH)
VHH: EVQLVESGGGLVQAGGSLRLSCVASRIPASIRTMAWYRQAPGKQRDWVATIGTGGTPAYADSFKGRFTVSRDNANHTVYLQMNSLKPEDTAVYYCRDVNGDYWGQGTQVTVSS
notes: C-term myc-His6 tag
B10: 15A6 (VHH)
VHH: EVQLVESGGGLVQAGGSLRLSCVTSRRPASTRTMAWYRQAPGKQRDWVATISSHGLPVYADSVKGRFTVSRDNANNTVYLQMNTLKPEDTAVYYCRDVNADYWGQGTQVTVSS
notes: C-term myc-His6 tag
B11: 17C5 (VHH)
VHH: EVQLVESGGGLVQAGGSLRLSCVTSRRPASTRTMAWYRQAPGKQRDWVATISSHGLPVYADSVKGRFTVSRDNANNTVYLQMNTLKPEDTAVYYCRDVNADYWGQGTPVTVSS
notes: C-term myc-His6 tag
B12: 15C2 (VHH)
VHH: EVQLVESGGGLVQAGGSLRLSCVTSRRPASTRTMAWYRQAQGKQRDWVATISSHGLPVYADSVKGRFTVSRDNANNTVYLQMNTLKPEDTAVYYCRDVNADYWGQGTQVTVSS
notes: C-term myc-His6 tag
B13: 15G4 (VHH)
VHH: EVQLVESGGGLVQAGGSLRLSCVASGIPFRSRTMAWYRQAPGKTRDWVATIGTHGTPLYADSVKGRFTVSRDNAKNTLYLQMNSLKPEDTAVYYCWDVNGDYWGQGTQVTVSS
notes: C-term myc-His6 tag
B14: 13A4 (VHH)
VHH: EVQLVESGGGLVQAGGSLRLSCVASKMTFMRYTMGWYRQAPGKQRDLVASIDSSGGTNYADSVKGRFTISRDNAKNTVYLEMNSLKPEDTGVYYCNGRWDIVGAIWWGQGTQVTVSS
notes: C-term myc-His6 tag
B15: 27H4 (VHH)
VHH: EVQLVESGGGLVQAGGSLRLSCVASKMTFMRYTMGWYRQAPGKQRDLVASIDASGGTNYADSVKGRFTISRDNAKNTVYLEMNSLKPEDTGVYYCNGRWDIVGAIWWGQGTQVTVSS
notes: C-term myc-His6 tag
B16: 17B6 (VHH)
VHH: EVQLVESGGGLVQPGGSLRLSCAASRIPFSTRTMAWYRQAPGKQRDWVATIGTSGPPRYADSVKGRFTVSRDNAKNTVYLQMNSLKAEDTAVYYCWDVNADYWGQGTQVTVSS
notes: C-term myc-His6 tag
B17: 13A8 (VHH)
VHH: EVQLVESGGGLVQPGGSLRLSCAASGLGIAFSRRTMAWYRQAPGKQRDWVATIAGDGSTVYADSMKGRFTISRDNAENTVYLQMNSLKPEDTAVYYCWDVNRDYWGQGTQVTVSS
notes: C-term myc-His6 tag
B18: 17F5 (VHH)
VHH: EVQLVESGGGLVQPGGSLRLSCAASGLGIAFSRRTMAWYRQAPGKQRDWVATIAGDGSTVYADSMKGRFTISRDNAKNTVYLQVNSLKPEDTAVYYCWDTNGDYWGQGTQVTVSS
notes: C-term myc-His6 tag
B19: 15A4 (VHH)
VHH: EVQLVESGGGLVQPGGSLRLSCAASGLGIAFSRRTMAWYRQAPGKQRDWVATIAGDGSTVYADSMKGRFTISRDNAKNTVYLQINSLKPEDTAVYYCWDVNRDYWGQGTQVTVSS
notes: C-term myc-His6 tag
B20: 17G5 (VHH)
VHH: EVQLVESGGGLVQPGGSLRLSCAASGIGIAFSSRTMAWYRQAPGKQRDWVATIGSGGTTNYADSVKGRFTISRDNAKNTVYLQMNSLKPEDTAVYYCRDINRDYWGQGTQVTVSS
notes: C-term myc-His6 tag
B21: 14A1 (VHH)
VHH: EVQLVESGGGSVQAGGSLRLSCAASERTFSSYGMGWFRQAPGKEREFVATINWSGVTAYADSVKGRFTISRDNAKKTVYLQMNSLKPEDTAVYYCAAEPYGSGSSLMSEYDYWGHGTQVTVSS
notes: C-term myc-His6 tag
B22: 14C11 (VHH)
VHH: EVQLVESGGGLVQAGGSLRLSCAVNSRTFSSYGMGWFRQAPGKEREFVATINWSGATAYADSIKGRFTISRDNAKETVYLQMNSLKPDDTGVYYCAAETYGSGSSLMSEYDYWGQGTQVTVSS
notes: C-term myc-His6 tag
B23: 14A2 (VHH)
VHH: EVQLVESGGGLVQAGGSLRLSCAASERTFSSYGMGWFRQAPGKEREFVATINWSGVTAYADSVKGRFTISRDNAKKTVYLQMNSLKPEDTAVYYCAAEPYGSGSSLISEYDYWGHGTQVTVSS
notes: C-term myc-His6 tag
B24: 14C6 (VHH)
VHH: EVQLVESGGGSVQAGGSLRLSCVASEGTFSSYGMGWFRQAPGKERAFVATINWSGVTAYADSVKGRFTISRDNAKKTVYLQMNSLKPEDTAVYYCATDTYGSGSSLMNEYDYWGQGTQVTVSS
notes: C-term myc-His6 tag
B25: 14B4 (VHH)
VHH: EVQLVESGGGLVQAGGSLRLSCAVSSRAFSSYGMGWFRQAPGKDREFVATINWSGVTAYADSIKGRFTISRDNAKETVYLQMNSLKPEDTGVYYCAAETYGSGSSLMSEYDYWGQGTQVTVSS
notes: C-term myc-His6 tag
B26: 14A12 (VHH)
VHH: EVQLVKSGGGLVQAGGSLRLSCAASERTFSSYGMGWFRQAPGKEREFVATINWSGVTAYADSVKGRFTISRDNAKKTVYLQMNSLKPEDTAVYYCAAEPYGSGSSLISEYDYWGHGTQVTVSS
notes: C-term myc-His6 tag
B27: 14B10 (VHH)
VHH: EVQLVESGGGLVQAGGSLRLSCAVNSRTFSSYGMGWFRQAPGKEREFVATINWSGVTAYADSIKGRFTISRDNAKETVYLQMNSLKPDDTGVYYCAAETYGSGSSLMSEYDYWGQGTQVTVSS
notes: C-term myc-His6 tag
B28: 14A4 (VHH)
VHH: EVQLVESGGGSVQAGSSLTLSCVASEGTFSSYGMGWFRQAPGKERAFVATINWSGVNAYADSVKGRFTISRDNAKKTAYLQMNSLKPEDTAVYYCAAETYGSGSSLMNEYDYWGQGTQVTVSS
notes: C-term myc-His6 tag
B29: 14B11 (VHH)
VHH: EVQLVESGGGLVQAGGSLRLSCAASGSTFSSYGMGWFRQVPGKEREFVATINWSGVTAYADSVKGRFTISRDNAKKTVYLQMNSLKPEDTARYYCGVETYGSGSSLMTEYDYWGQGTQVTVSS
notes: C-term myc-His6 tag
B30: 14C1 (VHH)
VHH: EVQLVESGGGSVQAGGSLRLSCAASGSTFSSYGMGWFRQAPGKERAFVATINWSGVTAYADSVKGRFTISRDNAKKTVYLQMNSLKPEDTAVYYCATETYGSGSSLMNEYDYWGQGTQVTVSS
notes: C-term myc-His6 tag
B31: 14B3 (VHH)
VHH: EVQLVESGGGLVQPGGSLTLSCVASEGTFSSYGMGWFRQAPGKERAFVATINWSGVNAYADSVKGRFTISRDNAKKTAYLQMNSLKPEDTAVYYCAAETYGSGSSLMNEYDYWGQGTQVTVSS
notes: C-term myc-His6 tag
B32: 27A5 (VHH)
VHH: EVQLVESGGGLVQAGGSLNLSCVASGIPFSTRTMAWYRQPPGNERDWVATIRSGAPVYADSVKGRFTVSRDNAKNTLYLQMNSLEPEDTATYYCWDVNGDIWGQGTPVTVSS
notes: C-term myc-His6 tag

This assay deals with T1, recombinant human ErbB2/Fc chimera (human, UniProt P04626 23-652).
T1 construct: bought from R&D Systems; also called rhErbB2-Fc; rhErb2-Fc; Fc part of the bought chimera not given; not described
In words: ELISA, coated ErbB2/Fc.
With B1, the binding result is “binds”.

With B2, the binding result was “binds”.

With B3, the binding result is “binds”.

Turning to B4, the binding result is reported as “binds”.

For B5, the binding result is recorded as “binds”.

B6: the binding result is recorded as “binds”.

For B7, the binding result is reported as “binds”.

For B8, the binding result was “binds”.

In the case of B9, the binding result was “binds”.

In the case of B10, the binding result is reported as “binds”.

As to B11, the binding result is given as “binds”.

B12: the binding result is on record as “binds”.

Take B13: the binding result was “binds”.

On to B14, for which the binding result is on record as “binds”.

Take B15: the binding result was “binds”.

Regarding B16, the binding result is “binds”.

As for B17, the binding result was “binds”.

Take B18: the binding result is on record as “binds”.

Regarding B19, the binding result is listed as “binds”.

In the case of B20, the binding result was “binds”.

With B21, the binding result was “binds”.

B22: the binding result is recorded as “binds”.

On to B23, for which the binding result is on record as “binds”.

As to B24, the binding result is reported as “binds”.

For the molecule B25, the binding result is “binds”.

B26: the binding result was “binds”.

As to B27, the binding result is listed as “binds”.

For B28, the binding result is reported as “binds”.

Regarding B29, the binding result was “binds”.

On to B30, for which the binding result is reported as “binds”.

For B31, the binding result was “binds”.

Regarding B32, the binding result is “binds”.
